Measured values taken from US20050158799A1 (published 2005).

Target: T1, TLR3-YFP (Toll-Like Receptor 3 fused to yellow fluorescent polypeptide), stably expressed in HELA cells (UniProt O15455 24-904)
T1 construct: Immunoprecipitated from whole cell lysates with anti-GFP antibody; not shown: yellow fluorescent polypeptide (YFP)
T1 sequence (looked up): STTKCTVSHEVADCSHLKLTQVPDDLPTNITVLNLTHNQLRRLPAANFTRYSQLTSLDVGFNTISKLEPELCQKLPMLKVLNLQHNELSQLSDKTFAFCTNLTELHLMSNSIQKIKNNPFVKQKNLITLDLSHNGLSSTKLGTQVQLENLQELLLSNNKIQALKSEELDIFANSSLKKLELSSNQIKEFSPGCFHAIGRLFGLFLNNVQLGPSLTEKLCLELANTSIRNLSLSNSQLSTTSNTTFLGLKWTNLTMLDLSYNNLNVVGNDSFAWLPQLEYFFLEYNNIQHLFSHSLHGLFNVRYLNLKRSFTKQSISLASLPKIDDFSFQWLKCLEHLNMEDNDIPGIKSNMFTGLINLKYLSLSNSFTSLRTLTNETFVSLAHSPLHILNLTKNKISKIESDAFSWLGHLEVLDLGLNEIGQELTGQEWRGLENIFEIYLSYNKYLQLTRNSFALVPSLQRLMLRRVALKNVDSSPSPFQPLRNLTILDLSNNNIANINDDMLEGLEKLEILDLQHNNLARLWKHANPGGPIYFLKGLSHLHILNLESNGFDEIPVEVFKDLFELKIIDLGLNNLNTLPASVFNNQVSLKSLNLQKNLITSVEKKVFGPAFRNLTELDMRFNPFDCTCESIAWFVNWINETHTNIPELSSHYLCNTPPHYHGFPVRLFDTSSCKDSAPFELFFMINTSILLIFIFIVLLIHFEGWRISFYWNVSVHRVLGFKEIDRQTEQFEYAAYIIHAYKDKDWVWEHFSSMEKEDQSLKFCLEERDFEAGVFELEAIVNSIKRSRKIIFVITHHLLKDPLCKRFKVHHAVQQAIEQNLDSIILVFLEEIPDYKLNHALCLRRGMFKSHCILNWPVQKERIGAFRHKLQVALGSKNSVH
Experiment: co-immunoprecipitation from TLR3-YFP HELA cell lysates with anti-GFP, blot for Flag
Description: 293T cells or TLR-expressing cells (10 cm plates) were transfected using GeneJuice (Novagen) with 4 μg of the indicated plasmids. One to two days after transfection, the cells were lysed in 1 ml of lysis buffer (20 mM Tris-HCl, 2 mM EDTA, 137 mM NaCl, 0.5% Triton X-100, 10% glycerol with protease inhibitors). Polyclonal anti-GFP (Molecular Probes), anti-IRF-3 or anti-CBP antibodies were incubated overnight with the cell lysates in […]. The immune complexes were precipitated and subjected to 4-15% SDS-PAGE and immunoblotted for FLAG- or CFP/YFP-tagged adapters using the anti-Flag mAb M2 (Sigma), or anti-GFP mAb (Clontech), which also recognizes the spectral variants of GFP.
Co-immunoprecipitation studies were performed to determine if TRAM interacts with TLR4. Stable TLR4^YFP- or TLR3^YFP-expressing HELA cells were transiently transfected with 4 μg of plasmid encoding Flag-Mal, Flag-TRAM or Flag TRAM-C117H. Forty-eight hours after transfection, whole cell lysates were immunoprecipitated with anti-GFP antibody and immunoprecipitated complexes immunoblotted for Flag-tagged adapters and co-immunoprecipitation experiments performed.

binding result: no binding
B1: Flag-tagged Mal (MyD88 adaptor-like; TIRAP) (other, UniProt P58753-2 1-235, looked up)
chain: MASSTSLPAPGSRPKKPLGKMADWFRQTLLKKPKKRPNSPESTSSDASQPTSQDSPLPPSLSSVTSPSLPPTHASDSGSSRWSKDYDVCVCHSEEDLVAAQDLVSYLEGSTASLRCFLQLRDATPGGAIVSELCQALSSSHCRVLLITPGFLQDPWCKYQMLQALTEAPGAEGCTIPLLSGLSRAAYPPELRFMYYVDGRGPDGGFRQVKEAVMRCKLLQEGEGERDSATVSDLL
notes: pEF-Bos-Flag Mal as described in Fitzgerald et al; also called Flag-Mal; pEF-Bos-Flag Mal; not shown: Flag tag
